The record followed here is publication doi:10.1101/582635.

Experiment [1] addresses human 40S ribosomal subunit lacking RACK1 (ΔRACK1 40S) (human (endogenous in HAP1)) (UniProt P23396). Put plainly: native gel or EMSA. In general terms: Mobility shift assays separate free from complexed probe on a gel.
For experiment [2] the target is unchanged. Put plainly: FRET or BRET.

As for “RACK1-ybbR expressed in ΔRACK1 HAP1 cells (native, ribosome-bound) (from UniProt P63244 1-317) (natural protein)”, the t1/2 (half-life on the 40S subunit) in experiment [1] was determined as 15 h.

B1: recombinant S. cerevisiae Asc1p-ybbR (RACK1 ortholog) (natural protein)
chain: MASNEVLVLRGTLEGHNGWVTSLATSAGQPNLLLSASRDKTLISWKLTGDDQKFGVPVRSFKGHSHIVQDCTLTADGAYALSASWDKTLRLWDVATGETYQRFVGHKSDVMSVDIDKKASMIISGSRDKTIKVWTIKGQCLATLLGHNDWVSQVRVVPNEKADDDSVTIISAGNDKMVKAWNLNQFQIEADFIGHNSNINTLTASPDGTLIASAGKDGEIMLWNLAAKKAMYTLSAQDEVFSLAFSPNRYWLAAATATGIKVFSLDPQYLVDDLRPEFAGYSKAAEPHAVSLAWSADGQTLFAGYTDNVIRVWQVMTAN
In experiment [2], B1 had a kobs (fast phase, 75 nM) of 0.2 s⁻¹ and a kon (fast phase) of 2e+06 M⁻¹ s⁻¹.
